B1: Nucleolar transcription factor 1, residues 408 to 469; numbered along this chain, P17480 (parent)
chain: KRPVSAMFIFSEEKRRQLQEERPELSESELTRLLARMWNDLSEKKKAKYKAREAALKAQSER

± gives the uncertainty stated by the source.

Variants of B1 are the subject of this series. The experiment in a line: abundance fitness (aPCA) (normalised: wild type 0, dead -1); higher = more abundant; growth selection in yeast, the domain comes from the species named. The note with it: Homo sapiens.
On to KRPVSAMFIFSEEKRRMLQEERPELSESELTRLLARMWNDLSEKKKAKYKAREAALKAQSER [Q17M], for which the abundance fitness is -0.028 ± 0.057.
With KRPVSAMFIFSEEKRRKLQEERPELSESELTRLLARMWNDLSEKKKAKYKAREAALKAQSER [Q17K] the figure was -0.094 ± 0.068; with KRPVSAMFIFSEEKRRLLQEERPELSESELTRLLARMWNDLSEKKKAKYKAREAALKAQSER [Q17L], -0.034 ± 0.046.
The value for KRPVSAMFIFSEEKRRDLQEERPELSESELTRLLARMWNDLSEKKKAKYKAREAALKAQSER [Q17D] was -0.112 ± 0.11; that for KRPVSAMFIFSEEKRRNLQEERPELSESELTRLLARMWNDLSEKKKAKYKAREAALKAQSER [Q17N] was -0.078 ± 0.22.
With KRPVSAMFIFSEEKRRGLQEERPELSESELTRLLARMWNDLSEKKKAKYKAREAALKAQSER [Q17G] the figure was -0.038 ± 0.041.
Consider KRPVSAMFIFSEEKRRYLQEERPELSESELTRLLARMWNDLSEKKKAKYKAREAALKAQSER [Q17Y], for which the abundance fitness is -0.145 ± 0.12.
The value for KRPVSAMFIFSEEKRRALQEERPELSESELTRLLARMWNDLSEKKKAKYKAREAALKAQSER [Q17A] was -0.081 ± 0.068.
As to KRPVSAMFIFSEEKRRILQEERPELSESELTRLLARMWNDLSEKKKAKYKAREAALKAQSER [Q17I], the abundance fitness was -0.201 ± 0.14.
Take KRPVSAMFIFSEEKRRSLQEERPELSESELTRLLARMWNDLSEKKKAKYKAREAALKAQSER [Q17S]: the abundance fitness is -0.016 ± 0.053.
As to KRPVSAMFIFSEEKRRCLQEERPELSESELTRLLARMWNDLSEKKKAKYKAREAALKAQSER [Q17C], the abundance fitness is -0.211 ± 0.078.
Take KRPVSAMFIFSEEKRRWLQEERPELSESELTRLLARMWNDLSEKKKAKYKAREAALKAQSER [Q17W]: the abundance fitness was -0.106 ± 0.046.
Regarding KRPVSAMFIFSEEKRRVLQEERPELSESELTRLLARMWNDLSEKKKAKYKAREAALKAQSER [Q17V], the abundance fitness is -0.018 ± 0.057.
Regarding KRPVSAMFIFSEEKRRTLQEERPELSESELTRLLARMWNDLSEKKKAKYKAREAALKAQSER [Q17T], the abundance fitness is -0.026 ± 0.092.
With KRPVSAMFIFSEEKRRHLQEERPELSESELTRLLARMWNDLSEKKKAKYKAREAALKAQSER [Q17H], the abundance fitness is -0.091 ± 0.12.
As to KRPVSAMFIFSEEKRRRLQEERPELSESELTRLLARMWNDLSEKKKAKYKAREAALKAQSER [Q17R], the abundance fitness was -0.114 ± 0.051.
The value for KRPVSAMFIFSEEKRRELQEERPELSESELTRLLARMWNDLSEKKKAKYKAREAALKAQSER [Q17E] was 0.002 ± 0.055.
Take KRPVSAMFIFSEEKHRQLQEERPELSESELTRLLARMWNDLSEKKKAKYKAREAALKAQSER [R15H]: the abundance fitness is -0.411 ± 0.2.
With KRPVSAMFIFSEEKLRQLQEERPELSESELTRLLARMWNDLSEKKKAKYKAREAALKAQSER [R15L] the figure was -0.168 ± 0.043; with KRPVSAMFIFSEEKGRQLQEERPELSESELTRLLARMWNDLSEKKKAKYKAREAALKAQSER [R15G], -0.153 ± 0.043; with KRPVSAMFIFSEEKVRQLQEERPELSESELTRLLARMWNDLSEKKKAKYKAREAALKAQSER [R15V], -0.29 ± 0.052.
With KRPVSAMFIFSEEKNRQLQEERPELSESELTRLLARMWNDLSEKKKAKYKAREAALKAQSER [R15N] the figure was -0.427 ± 0.08.
Take KRPVSAMFIFSEEKPRQLQEERPELSESELTRLLARMWNDLSEKKKAKYKAREAALKAQSER [R15P]: the abundance fitness is -1.28 ± 0.15.
With KRPVSAMFIFSEEKQRQLQEERPELSESELTRLLARMWNDLSEKKKAKYKAREAALKAQSER [R15Q] the figure was -0.267 ± 0.13.
The value for KRPVSAMFIFSEEKCRQLQEERPELSESELTRLLARMWNDLSEKKKAKYKAREAALKAQSER [R15C] was -0.218 ± 0.071; that for KRPVSAMFIFSEEKWRQLQEERPELSESELTRLLARMWNDLSEKKKAKYKAREAALKAQSER [R15W] was -0.295 ± 0.096; that for KRPVSAMFIFSEEKDRQLQEERPELSESELTRLLARMWNDLSEKKKAKYKAREAALKAQSER [R15D] was -1.2 ± 0.25.
As for KRPVSAMFIFSEEKMRQLQEERPELSESELTRLLARMWNDLSEKKKAKYKAREAALKAQSER [R15M], the abundance fitness is -0.19 ± 0.11.
Take KRPVSAMFIFSEEKYRQLQEERPELSESELTRLLARMWNDLSEKKKAKYKAREAALKAQSER [R15Y]: the abundance fitness was -0.243 ± 0.16.
The value for KRPVSAMFIFSEEKFRQLQEERPELSESELTRLLARMWNDLSEKKKAKYKAREAALKAQSER [R15F] was -0.111 ± 0.06.
As to KRPVSAMFIFSEEKARQLQEERPELSESELTRLLARMWNDLSEKKKAKYKAREAALKAQSER [R15A], the abundance fitness was -0.201 ± 0.051.
Regarding KRPVSAMFIFSEEKSRQLQEERPELSESELTRLLARMWNDLSEKKKAKYKAREAALKAQSER [R15S], the abundance fitness was -0.121 ± 0.05.
For KRPVSAMFIFSEEKERQLQEERPELSESELTRLLARMWNDLSEKKKAKYKAREAALKAQSER [R15E], the abundance fitness is -0.279 ± 0.063.
The value for KRPVSAMFIFSEEKKRQLQEERPELSESELTRLLARMWNDLSEKKKAKYKAREAALKAQSER [R15K] was 0.035 ± 0.078; that for KRPVSAMFIFSEEKIRQLQEERPELSESELTRLLARMWNDLSEKKKAKYKAREAALKAQSER [R15I] was -0.209 ± 0.094.
The value for KRPVSAMFIFSEEKTRQLQEERPELSESELTRLLARMWNDLSEKKKAKYKAREAALKAQSER [R15T] was -0.23 ± 0.077; that for KRPVSAMFIFSEEKREQLQEERPELSESELTRLLARMWNDLSEKKKAKYKAREAALKAQSER [R16E] was -0.106 ± 0.074; that for KRPVSAMFIFSEEKRDQLQEERPELSESELTRLLARMWNDLSEKKKAKYKAREAALKAQSER [R16D] was -0.248 ± 0.094.
With KRPVSAMFIFSEEKRNQLQEERPELSESELTRLLARMWNDLSEKKKAKYKAREAALKAQSER [R16N], the abundance fitness was -0.154 ± 0.16.
KRPVSAMFIFSEEKRMQLQEERPELSESELTRLLARMWNDLSEKKKAKYKAREAALKAQSER [R16M]: the abundance fitness was -0.024 ± 0.067.
For KRPVSAMFIFSEEKRQQLQEERPELSESELTRLLARMWNDLSEKKKAKYKAREAALKAQSER [R16Q], the abundance fitness is -0.041 ± 0.066.
With KRPVSAMFIFSEEKRYQLQEERPELSESELTRLLARMWNDLSEKKKAKYKAREAALKAQSER [R16Y] the figure was -0.072 ± 0.099.
With KRPVSAMFIFSEEKRLQLQEERPELSESELTRLLARMWNDLSEKKKAKYKAREAALKAQSER [R16L], the abundance fitness is -0.058 ± 0.056.

Values taken from the Human Domainome abundance scans (Beltran et al. 2025).
